Data as given in US20240132578A1.

How the values were obtained:
Test in all cases: cell-based or functional assay
[1] = target: HIV-1 Env of isolate 93MW959 (subtype C) (HIV-1)
[2] = target: HIV-1 Env of isolate 97ZA012 (subtype C) (HIV-1)
[3] = target: HIV-1 Env of isolate 98IN022 (subtype C) (HIV-1)
[4] = target: HIV-1 Env of isolate MGRM-C-001 (subtype C) (HIV-1)
[5] = target: HIV-1 Env of isolate MGRM-C-002 (subtype C) (HIV-1)
[6] = target: HIV-1 Env of isolate MGRM-C-004 (subtype C) (HIV-1)
[7] = target: HIV-1 Env of isolate MGRM-C-005 (subtype C) (HIV-1)
[8] = target: HIV-1 Env of isolate MGRM-C-006 (subtype C) (HIV-1)
[9] = target: HIV-1 Env of isolate MGRM-C-007 (subtype C) (HIV-1)
[10] = target: HIV-1 Env of isolate MGRM-C-008 (subtype C) (HIV-1)
[11] = target: HIV-1 Env of isolate MGRM-C-009 (subtype C) (HIV-1)
[12] = target: HIV-1 Env of isolate MGRM-C-010 (subtype C) (HIV-1)
[13] = target: HIV-1 Env of isolate MGRM-C-012 (subtype C) (HIV-1)
[14] = target: HIV-1 Env of isolate MGRM-C-013 (subtype C) (HIV-1)
[15] = target: HIV-1 Env of isolate MGRM-C-014 (subtype C) (HIV-1)
[16] = target: HIV-1 Env of isolate MGRM-C-015 (subtype C) (HIV-1)
[17] = target: HIV-1 Env of isolate MGRM-C-017 (subtype C) (HIV-1)
[18] = target: HIV-1 Env of isolate MGRM-C-019 (subtype C) (HIV-1)
[19] = target: HIV-1 Env of isolate MGRM-C-020 (subtype C) (HIV-1)
[20] = target: HIV-1 Env of isolate MGRM-C-022 (subtype C) (HIV-1)
[21] = target: HIV-1 Env of isolate MGRM-C-023 (subtype C) (HIV-1)
[22] = target: HIV-1 Env of isolate MGRM-C-024 (subtype C) (HIV-1)
[23] = target: HIV-1 Env of isolate MGRM-C-025 (subtype C) (HIV-1)
[24] = target: HIV-1 Env of isolate MGRM-C-026 (subtype C) (HIV-1)
[25] = target: HIV-1 Env of isolate MGRM-C-027 (subtype C) (HIV-1)
[26] = target: HIV-1 Env of isolate MGRM-C-028 (subtype C) (HIV-1)
[27] = target: HIV-1 Env of isolate MGRM-G-001 (subtype G), on pseudovirus (HIV-1)
[28] = target: HIV-1 Env of isolate MGRM-G-004 (subtype G), on pseudovirus (HIV-1)
[29] = target: HIV-1 Env of isolate MGRM-G-006 (subtype G), on pseudovirus (HIV-1)
[30] = target: HIV-1 Env of isolate MGRM-G-009 (subtype G), on pseudovirus (HIV-1)
[31] = target: HIV-1 Env of isolate MGRM-G-011 (subtype G), on pseudovirus (HIV-1)
[32] = target: HIV-1 Env of isolate MGRM-G-013 (subtype G), on pseudovirus (HIV-1)
[33] = target: HIV-1 Env of isolate MGRM-G-014 (subtype G), on pseudovirus (HIV-1)
[34] = target: HIV-1 Env of isolate MGRM-G-015 (subtype G), on pseudovirus (HIV-1)
[35] = target: HIV-1 Env of isolate MGRM-G-016 (subtype G), on pseudovirus (HIV-1)
[36] = target: HIV-1 Env of isolate MGRM-G-017 (subtype G), on pseudovirus (HIV-1)
[37] = target: HIV-1 Env of isolate MGRM-G-019 (subtype G), on pseudovirus (HIV-1)
[38] = target: HIV-1 Env of isolate MGRM-G-024 (subtype G), on pseudovirus (HIV-1)
[39] = target: HIV-1 Env of isolate MGRM-G-025 (subtype G), on pseudovirus (HIV-1)
[40] = target: HIV-1 Env of isolate MGRM-G-027 (subtype G), on pseudovirus (HIV-1)
[41] = target: HIV-1 Env of isolate MGRM-G-028 (subtype G), on pseudovirus (HIV-1)
[42] = target: HIV-1 JR-CSF Env P470A (HIV-1 JR-CSF) (UniProt P20871)
[43] = target: HIV-1 JR-CSF Env R480A (HIV-1 JR-CSF) (UniProt P20871)
[44] = target: aMLV envelope, on pseudovirus (negative control)

B1: PGT-126 (antibody, V domains shown)
VH: QPQLQESGPGLVEASETLSLTCTVSGDSTAACDYFWGWVRQPPGKGLEWIGGLSHCAGYYNTGWTYHNPSLKSRLTISLDTPKNQVFLKLNSVTAADTAIYYCARFDGEVLVYHDWPKPAWVDLWGRGTLVTVSS
VL: QSALTQPPSASGSPGQSISISCTGTSNRFVSWYQQHPGKAPKLVIYGVNKRPSGVPDRFSGSKSGNTASLTVSGLQTDDEAVYYCSSLVGNWDVIFGGGTKLTVL
B1 showed an IC50 (µg/mL), pseudovirus neutralization [1] of 9.44 µg/mL, an IC50 (µg/mL), pseudovirus neutralization [2] of 0.042 µg/mL and an IC50 (µg/mL), pseudovirus neutralization [3] of 0.279 µg/mL. It also gave an IC50 (µg/mL), pseudovirus neutralization [4] greater than 50 µg/mL, an IC50 (µg/mL), pseudovirus neutralization [5] of 0.011 µg/mL and an IC50 (µg/mL), pseudovirus neutralization [6] of 0.033 µg/mL. For the same binder, the IC50 (µg/mL), pseudovirus neutralization [7] was 0.298 µg/mL, the IC50 (µg/mL), pseudovirus neutralization [8] was 0.014 µg/mL and the IC50 (µg/mL), pseudovirus neutralization [9] was 25.3 µg/mL. For the same binder, the IC50 (µg/mL), pseudovirus neutralization [10] was 2.12 µg/mL, the IC50 (µg/mL), pseudovirus neutralization [11] was greater than 50 µg/mL and the IC50 (µg/mL), pseudovirus neutralization [12] was greater than 50 µg/mL. It also gave an IC50 (µg/mL), pseudovirus neutralization [13] of 0.111 µg/mL, an IC50 (µg/mL), pseudovirus neutralization [14] greater than 50 µg/mL and an IC50 (µg/mL), pseudovirus neutralization [15] greater than 50 µg/mL. It also gave an IC50 (µg/mL), pseudovirus neutralization [16] of 3.14 µg/mL, an IC50 (µg/mL), pseudovirus neutralization [17] of 0.17 µg/mL and an IC50 (µg/mL), pseudovirus neutralization [18] of 0.005 µg/mL. The IC50 (µg/mL), pseudovirus neutralization [19] was greater than 50 µg/mL, the IC50 (µg/mL), pseudovirus neutralization [20] was 0.96 µg/mL and the IC50 (µg/mL), pseudovirus neutralization [21] was 0.065 µg/mL. For the same binder, the IC50 (µg/mL), pseudovirus neutralization [22] was greater than 50 µg/mL, the IC50 (µg/mL), pseudovirus neutralization [23] was 0.786 µg/mL and the IC50 (µg/mL), pseudovirus neutralization [24] was 0.007 µg/mL. The IC50 (µg/mL), pseudovirus neutralization [25] was 15.6 µg/mL, the IC50 (µg/mL), pseudovirus neutralization [26] was 0.196 µg/mL and the IC50 (µg/mL), neutralization of pseudovirus [27] was 0.038 µg/mL. It also gave an IC50 (µg/mL), neutralization of pseudovirus [28] greater than 50 µg/mL, an IC50 (µg/mL), neutralization of pseudovirus [29] greater than 50 µg/mL and an IC50 (µg/mL), neutralization of pseudovirus [30] greater than 50 µg/mL. For the same binder, the IC50 (µg/mL), neutralization of pseudovirus [31] was 7.32 µg/mL, the IC50 (µg/mL), neutralization of pseudovirus [32] was 48.8 µg/mL and the IC50 (µg/mL), neutralization of pseudovirus [33] was 0.009 µg/mL. It also gave an IC50 (µg/mL), neutralization of pseudovirus [34] greater than 50 µg/mL, an IC50 (µg/mL), neutralization of pseudovirus [35] greater than 50 µg/mL and an IC50 (µg/mL), neutralization of pseudovirus [36] greater than 50 µg/mL. It also gave an IC50 (µg/mL), neutralization of pseudovirus [37] of 0.018 µg/mL, an IC50 (µg/mL), neutralization of pseudovirus [38] greater than 50 µg/mL and an IC50 (µg/mL), neutralization of pseudovirus [39] of 17.1 µg/mL. For the same binder, the IC50 (µg/mL), neutralization of pseudovirus [40] was 0.875 µg/mL, the IC50 (µg/mL), neutralization of pseudovirus [41] was 0.012 µg/mL and the Fold IC50 increase relative to wild-type [42] was 2.7 fold. It also gave a Fold IC50 increase relative to wild-type [43] of 1.9 fold and an IC50 (µg/mL), neutralization of pseudovirus [44] greater than 50 µg/mL.
